The text below walks through data of patent publication US5385834, “Mutant T7 RNA polymerase GP1(lys222) exhibiting altered promoter recognition” (Georgia Tech Research Corporation).

Data set [1] addresses T7 RNA polymerase mutant GP1(lys222) (Bacteriophage T7, UniProt P00573 SEQ:1-883, E222K). Description: EMSA; +/-5e3; 20-fold below wild-type; more easily disrupted by lambda DNA; 25 C. The following applies: label: 32P. Here is the method:
(§1) FIG. 8: Binding of a T7 Promoter by Wild-type T7 RNA Polymerase and GP1(lys222). […] Lane 1-no RNA polymerase, 5 µM promoter; Lane 2-26.5 nM GP1(lys222), 5 µM promoter; Lane 3-132.7 nM GP1(lys222), 5 µM promoter; Lane 4-26.5 nM GP1(lys222), 5 µM promoter, 3 µg lambda DNA; Lane 5-132.7 nM GP1(lys222), 5 µM promoter, 3 µg lambda DNA; Lane 6-12.9 nM T7 RNA polymerase, 5 µM promoter, Lane 7-64.7 nM T7 RNA polymerase, 5 µM promoter; Lane 8-12.9 nM T7 RNA polymerase, 5 µM promoter, 3 µg lambda DNA; Lane 9-64.7 nM T7 RNA polymerase, 5 µM promoter, 3 µg lambda DNA. Complex=Position of the enzyme/promoter complexes. Promoter=Position of the unbound promoter oligo.
(§2) 12. Estimation of Promoter Binding. The ability of T7 RNA polymerase and GP1(lys222) to bind a T7 promoter was determined by a gel-retardation method [Muller, D. K., et al., *Biochemistry*, 27: 5763-5771 (1988)]. […] The promoter/polymerase complexes were then cut out of the gel, and the amount of promoter contained in the complexes was measured by liquid scintillation.
A general note: In EMSA bound probe runs differently from free probe, usually more slowly.

The target of data set [2] is T7 RNA polymerase (wild-type) (Bacteriophage T7, UniProt P00573 SEQ:1-883). In words: EMSA; +/-2.2e5; 10 mM K phosphate pH 7.8, 1 mM EDTA, 20 mM NaCl, 25 C. Particulars: label: 32P. How it is done: as §1, §2

B1: 24 bp T7 promoter oligonucleotide (dsDNA)
DNA 1: ATTAATACGACTCACTATAGGACT
DNA 2: AGTCCTATAGTGAGTCGTATTAAT
Regarding B1, the Ka was 14000 M⁻¹ in data set [1] and 280000 M⁻¹ in data set [2].
